Test results from a protein production outcome set (Wang et al. 2014).

Assay: label from the status in PepcDB records
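Note: failed if final PepcDB status was selected cloned or expressed and not failed if soluble or beyond.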

Sequence	protein production
MRINILSEDTSNKIAAGEVVERPFSVVKELVENSIDAGAKTINIEIENGGRTLIKVLDDGYGIDKDDIEKAFMPHATSKISKLQDIYSINTLGFRGEALPSIASVSKTTLKSRTKENEFGREISISGGSVDYIKDCGTNIGTHIEVRDLFYNVPAREKFLKSTAKEASSISDIVNRLALAHSEISFRLINNGKRVITTYATDNLIDTIRAIYGKKICDNVISFERHTDLVSVHGYVGNAEISRGSRNNQSIFINKRYIKNKLITAAVENAVKSFMMINKFPFFIIFLDIFPEFVDVNVHPTKSEVKFQNERDIFKIIFDTVHEGIRNSLKESFKVEALKEEEDKLFDIKEDVITKNEIKHDDKIDGYIKKDSFPVPVQIPIDLKRPIENYDNSTKENKDRSFDDFREKDIIKETSQEKETYDIITNKKAKFPELRVIGQFNNTYILAESFEELYIIDQHAAHEKILFEKYREDIKNKGVSSQILITPSVVELLPEDFIYYDENKEVFKNAGFVIEYFGDNTVAIKEVPLFLGKPLVKDLFLEIIDNLKNMGSGETSEVKYRSIATAACKSAVKAYHELTHDEMKTLIQDLRFAEDPFNCPHGRPTIVRLTVTDFEKKFKRIQ	failed
MRIQTTFSRKLVLMSLLAVFCGCADVHSSVKGDAMVEQAKGGVLREIKVAETGEGARVVLSADRPLAYTFYKTADPPKAVIDLARTEPGAIASPMDVNSDTIRRIETVRYGEGATAMTRVEVYFTRDTEANATIDASDKGMLVLAVARPVAPAASVAVEAAPAAGQAGESSTGAPVAVAAAPAVAPAPVAVEPQAPIAPVVAPQTGPPVIKAIEAQNGYLVIETSGEIKDFKFFRLAKPDRLVVDISDARLGINSKAIPLNALGVGMARIGAYPDKVRIVLDAAGGTLSPLNVTKGAAGLIVAPADKVVDVPRAAAPPQPSASASQARQPEAVKSAEPAKGLTPAVDAIEFKVLDGTSRITVAVTGACANDKPVKSADGFSVTLRNCILPKKLQRHLDTGAFASVVQKVTPYQVKTKGRSDVKIQVQLRQPASYDVRRDGDLLQVSVRNPEGFEPPVADVPASPTLQDGMDQAAVRQKEPSRETDPLAGVAQSGGTKKAYTGRRVTLEFSDADIRKIFQLIAEVSNLNFLVGDDVTGTISLKLVNVPWDQALDVILENKGLGMQRDGNIVQIRPKSKIQTLADEEQALKRAKERGMELKTEVFDINFAAVGDIVSQFNAVKSERGTISQDARTNRVIVKDIEPALAEMRILLKNLDLPEKQVLIEARIVEATSTFTRDLGVQWGIHSNDSGADIIRSVDAGFGGIVTPPPASGFPAATSSGGAVGISFAKMGSLQVDLRLSAAAVAGLVKIVSTPKVVTLNNKAAKISQGQSIPYQTTSAEGTKTEFVEAALTLEVTPHITADGSVSMKIKASNNSAGTGSPPPINKKEATTELLVKNGETTVIGGIYVDSDTDEDRGVPFLMDIPVLGWLFKSNTKNKTKTELLIFITPKIVS	failed
MRIRLLGGLEVMSREHRQVRFTTRKTSLLFAALVLGGRRGYRRELLSETFWPGRSNEQARNSLRQALVDIRRSFPAGGDAPVYIDGDQETVALITGPDETDISIFDRKLEAGRTADLAFAADLYRGEVLAGEAIPDELDEWFGPYRSTYQRKALQLVERLSQALSEPGTAEESACEGLAERLLAMDPTVEAAHRALMQIHALRGHENAALRQFEACRALLRKHLQAEPEAETSSLAASLQSRQGSEHRRTTPGPDPVPQPQAISAPAKHHDRPSVAVLPFQNLSGDAEQEYFADGIVEDITIALAQFRHLYVIARNSSFTYKGQAVDIKQVGRELDVRYVVEGSVRRTGDRLRIAGQLIDTSTGTHLWADRFDGTLANVFDLQDQVASSIVGAITPKVEEAEIERAKRKPTESLDAYDYYLRGLAAFDRTVTNRSVIDEALRLFREAIERDPEFAVAHARAARCYATRKSNGWMLNPADETAEATRLARRAVELGWDDAVALTYGGYVIGYVGGDLDDSAACIDRAVSLNPNLAAALGVSSWVKVCLGEPDKAIEHATLAMRLSPLDPRLFAWQFNIGLAHFCAGHYDDAAVWAGKSLRHQLNYPSAMRVMAASQAMAGRLAQARETIARLCLMDPALRLSNLADVLPPFRRPDDRNRYIEALRMAGLPE	failed
MRISFVGSGKVATHLAKAFAQQHQIIQIMSRNLPHAEKLAHQVGACAIDNYSQIEQEIDLLVIAVSDQSISSVIQAVHVFVPEQLIVHTSGSTDVKILSDIHSNAGVFYPLQTFSFERDIHWSDTPLLIEAEQANSLSILNALANSLTKRVYHYSSTQRLSLHLAAVFACNFSNYCYDMAKQTVDQAQVDFSLLYPLILETAKKATQHDPVQVQTGPAVRHDHNIVELHQNLLLKANRPDLKDIYQRLSQAIIARHHTQP	failed
MRITTLEELLEALDELFDDGSDLTRRGAQDPWERVFSQPGHPLASDLPDACLVDWTRQGLLPSGDGLTALDLGCGLGRNARWLARQGYAVTGLDLSPYAVGQARERTPGPDIRYLEGDVLRDPIPGGPFDVVYDSGCFHHLPPHRRLSYLHTLGQVLRPGGWFGLCTFAWGRMGSAKSDLELLRQGQLEGGVGYTLDDLREMFGGLDFVTGSLLSELEPASEPVFQMDFLQAALFRRPE	failed
MRKDEYRATLLEPNVWHIADYRGDSMYLVVGEEKALLVDTGMGEGDLKGFVRSITEKPVEVVLTHAHWDHIMQANQFEKVYLNHRDFQIIELFKINVNYENFLNVKEGDRFDLGGRTLEVIEVPGHTPGSIVLLDRENRLLFSGDSVGAGHTWMHLPGCLPLREYLKSLKKLKETDSFEKIYHGHLTGTQLKPFGPDYLDDLIKAVEGVIDGSLRGEP	failed
MRKFKISVLLKLGFYCLFLSIGLEMQARKFVHPGILHTTKSIERMRAQIADKEYPAYGSFELLKSHHCSQADYQPFGPFEIISRDGEFRHTKSKMEQDFSAVYQNALMWVLTGEKTHAEKSLELLLGYAGTLKRIPETNDAPLLVGLEGLKIIYATEILRHTYKKMTVVQFNEISRMIREVFLPVMENFYHRKPYTNGNWGPIVTKAYMAAAILWDNEEMYNKAVDFYLHANDNGTIAHYISGDTGQIQESGRDQGHSMLGIGALATVCEIAWQQGDDLYSALDNRLMKGFEYVAKYNLGYNVPFAVWKDVTGKYSNWTEISNKGRGRYMPIFEMTYNHFVIRKGMQMPYTEQVLRQIRPEGYDRDQPAFGSLLFNEAGTKKNYVDLVNPFVDSHRSRWFFFSSACRPFGMVSLSPDTDTEHSWGSGYLYDSKQIRCFSHVHNWQMSGVAVMPTVGEFKGHLGMNAYQSAFTHDGEIAKPGYHKVKLTDYDITAELTSTMRVGFHCYTFPKSDASYILFDTGAFLAHGPTAYSEVWKVSDKEIAGWEMMERTGRRPKDTPVYFYAQLSKPMDKVVSWREGRIESNSNPERISGKNAGMAVRFKTEKDEKVMLKVAISYVSVEQARKNMLTELSGWDFEQVKQSSFSEWNDWLGRIEVEGGSREQQIKLYTDLWHALLGRHVVSDADGHYMDMTSDFPRIRQIPLGEDGKPLYNHHNFDAWWGSHWSLNILWSMAYPEVMDNFCNTMIDMYQNGGLIPRGPSGGNYTYVMIGDPAVSFFASAYNKGIRNYDAELAYEGLRKNAFVGGIRDHAGYEHSKTAYSGGMKYYEEWGYVPDGRKDVEGMHTTGASMTLEYAYQDWCLAQMAKTMGKLQDYEFFMKRSKNYRNLWNPESGYMQPRGEDGNWLPYFDPLELTEKGGFCESNSAIYSHYVPHDMAGLIELYGGADQYVKRLNANFEKSESYGFFRSNKTKEGNWTDYGNQPGTGMAHLFSYAGAPWLTQKWVRKVKAAYCDVTPYGGYRDDEDQGQMGALGVLMAIGLFEVDGGCAEKPFYEITSPLFDKVTIHLDNRYYSGKTFQIITKGNSTDNMYIQNASLNGKKWNKCWFYHEDFIKGGTLELKLGAKPNKKWGVEELPPSFISSK	failed
MRKKKRLISLLLAVFIAVACLPAGIARADKASSIELKFDRNKGEVGDILIGTVRINNIKNFAGFQVNIVYDPKVLMAVDPETGKEFTSSTFPPGRTVLKNNAYGPIQIADNDPEKGILNFALAYSYIAGYKETGVAEESGIIAKIGFKILQKKSTAVKFQDTLSMPGAISGTQLFDWDGEVITGYEVIQPDVLSLGDEPYETPGTDIPISDNPAATPSSTPSVTPSPEVKPTQTPSPAENSAKVELEPVLDNATGEAKAAIDEEKLNKALDEAKKSEDDKLVELNIKKVENADAYIQQLPAKFLIKSDAEYKLRIATEQGIIEVPANMLNTADISKLVKNDSVVEFVIRKVKVDELGAELKEKIGNRPVIDISVVVDGKKVEWSNYKAKVKISIPYKPDAKELENHEHIVVLHIDDAGKAVSVPSGKYEPSLGVVTFETNHLSKYAVSYVYKTFADIGSYAWAKKQIEVLASKGVINGTSDTTFTPQADITRADFMILLVKALGLTAEVTSNFDDVSEKDYYYEYVGIAKELGITTGVGNNKFNPKAKITRQDMMVLTTNALRIAGKISSTGTRADVERFSDKDQIASYAVEGVATLVKEGIVVGSGDIINPRGNASRAELAAIIYKIYYK	not failed
MRKLWPLALLLAACGAQDVGAGLDPLRLTATSLPPAYLGEPYSASLAAEGGVRPYSFTLDGKLPEGLSFQGGRLFGVPKEKGSFPLLLTVEDAAKNSRAQRLTLTVSDPPPPRLALVLPPAQVEGPFLLLARVEGREAVGFQMEVRLADLEPDLAGLKALSPAHLLDYDPATRLLRLDMAFAKPVKDREAFRLLLTPQKPLVPRLSPKVVFYDKEGKPLGQPLPRGKPFAELLRLAQAWGREGKALKEDLDGDGKVGEADLRLLAQDYFPKPETPSPEAPGGGEGQASGEEQARLEHHHHHH	failed
MRKNHYPLRGYISTNRSKHNLKAHLILVCKYRKKLLQGDLNNFIKSVIDEIATQSNFIIIAMESDIDHLHLMVQYIPRMSISSIISRIKQITTYRVWRDKRFIPLLQKHFWKEKTFWTDGFFVCSIGEANPETIKAYIENQG	failed
MRKPKITVIGGGTGSPVILKSLREKDVEIAAIVTVADDGGSSGELRKNMQQLTPPGDLRNVLVAMSDMPKFYEKVFQYRFSEDAGAFAGHPLGNLIIAGLSEMQGSTYNAMQLLSKFFHTTGKIYPSSDHPLTLHAVFQDGTEVAGESHIVDHRGIIDNVYVTNALNDDTPLASRRVVQTILESDMIVLGPGSLFTSILPNIVIKEIGRALLETKAEIAYVCNIMTQRGETEHFTDSDHVEVLHRHLGRPFIDTVLVNIEKVPQEYMNSNRFDEYLVQVEHDFVGLCKQVSRVISSNFLRLENGGAFHDGDLIVDELMRIIQVKK	not failed
MRKRARIIYNPTSGKELFKRVLPDALIKLEKAGYETSAYATEKIGDATFEAERALESEYDLLIAAGGDGTLNEVVNGIAEQPNRPKLGVIPMGTVNDFGRALHLPSDIMGAIDVIIDGHTTKVDIGKMNNRYFINLAAGGKLTQVSYETPSKLKSIVGPFAYYIKGFEMLPQMKAVDVRIEYDDNIFQGEALLFLLGLTNSMAGFEKLVPDAKLDDGYFTLIIVEKANLAELGHIMTLASRGEHTKHPKVIYAKAKSINISSFTDMQLNVDGEYGGKLPANFLNLEQHIEIFTPKDVFNEELLENDTITDITPDKQ	not failed
